Measured values as given in US20210340530A1 (INTELLIA THERAPEUTICS, published 2021).

Key:
[1] = biological target: T1, … (RMF) WT1 peptide pulsed on target cells (HLA-02.01 positive T2 cell line; OCI-AML3); test: cell-based or functional assay
[2] = biological target: T2, … (VLD) WT1 peptide pulsed on target cells (HLA-02.01 positive T2 cell line; OCI-AML3); test: cell-based or functional assay
[3] = biological target: T2, … (VLD) WT1 peptide pulsed on target …; test: cell-based or functional assay; remark: listed apart in the source
[4] = biological target: T1, … (RMF) WT1 peptide pulsed on target …; test: cell-based or functional assay; remark: listed apart in the source
[5] = biological target: T2, … (VLD) WT1 peptide pulsed on target …; test: cell-based or functional assay; remark: listed apart in the source
[6] = biological target: T3, VLD-Tetramer (pMHC tetramer with WT1 peptide …); test: flow cytometry, VLD-Tetramer staining of engineered T cells; TRAC RNP only
T3 construct: Staining reagent; also called VLD (Wilms' tumor antigen) tetramer; TCR specific pMHC tetramer
Procedure: (§1) Four to 12 days after RNP nucleofection, edited T cells (200 ul/200,000 cells) were collected in a 96 well round bottom plate and spun down at 500 g for 5 minutes. Cells were then resuspended in an antibody mixture containing a combination of antibodies targeting CD3, CD4, CD8, CD45RO, CD45RA, CD27, CCR7, CD62L, and/or the TCR specific pMHC tetramer or TCR specific Vbeta chain antibody. The mixture was incubated for 45 minutes at room temperature in the dark. Samples were spun down at 500 g for 5 minutes, cell pellets collected, and resuspended in 1:10,000 DAPI (Biolegend—#422801) in FACS buffer. Flow cytometry was then performed using the cytoflex according to the manufacturer's instructions.
(§2) T cells were evaluated with additional engineered TCRs for the impact of endogenous beta chains on pairing of both the inserted alpha chain and inserted beta chain. The experiment was performed as described herein except tetramer staining was used to measure MFI and the AAV inserts in Table 31 were used for transduction.

[7] = biological target: T3, VLD-Tetramer (pMHC tetramer with WT1 …); test: flow cytometry, VLD-Tetramer staining of engineered T cells; TRAC + TRBC RNP
Procedure: as §1, §2

[8] = biological target: T1, … (RMF) WT1 peptide pulsed on target …; test: cell-based or functional assay; remark: listed apart in the source
[9] = biological target: T2, … (VLD) WT1 peptide pulsed on target …; test: cell-based or functional assay; remark: listed apart in the source
[10] = biological target: T2, … (VLD) WT1 peptide pulsed on target …; test: cell-based or functional assay; remark: listed apart in the source

B1: TCR-G (WT1-specific T-cell receptor) (TCR, V domains shown)
V domain 1: DQQVKQNSPSLSVQEGRISILNCDYTNSMFDYFLWYKKYPAEGPTFLISISSIKDKNEDGRFTVFLNKSAKHLSLHIVPSQPGDSAVYFCAARGQGNLIFGKGTKLSVKP
V domain 2: EAGVAQSPRYKIIEKRQSVAFWCNPISGHATLYWYQQILGQGPKLLIQFQNNGVVDDSQLPKDRFSAERLKGVDSTLKIQPAKLEDSAVYLCASSLYRGEQYFGPGTRLTVTE
notes: also called AV15-TCR-G
[1]
  % CD4+ CD107a+; TRAC/TRBC; 50 nM RMF; T2: 4.67%
  % CD8+ CD107a+; TRAC/TRBC; 50 nM RMF; T2: 2.82%
[2]
  % CD4+ CD107a+; TRAC/TRBC; 0 nM VLD; T2: 4.62%
  % CD4+ CD107a+; TRAC/TRBC; 0.005 nM VLD; T2: 5.06%
  % CD4+ CD107a+; TRAC/TRBC; 0.05 nM VLD; T2: 4.23%
  % CD4+ CD107a+; TRAC/TRBC; 0.5 nM VLD; T2: 4.74%
  % CD4+ CD107a+; TRAC/TRBC; 5 nM VLD; T2: 4.44%
  % CD4+ CD107a+; TRAC/TRBC; 50 nM VLD; T2: 4.52%
  % CD8+ CD107a+; TRAC/TRBC; 0 nM VLD; T2: 3.15%
  % CD8+ CD107a+; TRAC/TRBC; 0.005 nM VLD; T2: 12.2%
  % CD8+ CD107a+; TRAC/TRBC; 0.05 nM VLD; T2: 34.2%
  % CD8+ CD107a+; TRAC/TRBC; 0.5 nM VLD; T2: 53.3%
  % CD8+ CD107a+; TRAC/TRBC; 5 nM VLD; T2: 65.8%
  % CD8+ CD107a+; TRAC/TRBC; 50 nM VLD; T2: 73.2%
[3]
  IL2 release; TRAC only; 0 nM VLD; T2: 338 pg/mL
  IL2 release; TRAC only; 0.005 nM VLD; T2: 326 pg/mL
  IL2 release; TRAC only; 0.05 nM VLD; T2: 284 pg/mL
  IL2 release; TRAC only; 0.5 nM VLD; T2: 305 pg/mL
  IL2 release; TRAC only; 5 nM VLD; T2: 442 pg/mL
  IL2 release; TRAC only; 50 nM VLD; T2: 1050 pg/mL
  IL2 release; TRAC only; 500 nM VLD; T2: 1570 pg/mL
  IL2 release; TRAC/TRBC; 0 nM VLD; T2: 306 pg/mL
  IL2 release; TRAC/TRBC; 0.005 nM VLD; T2: 196 pg/mL
  IL2 release; TRAC/TRBC; 0.05 nM VLD; T2: 198 pg/mL
  IL2 release; TRAC/TRBC; 0.5 nM VLD; T2: 248 pg/mL
  IL2 release; TRAC/TRBC; 5 nM VLD; T2: 351 pg/mL
  IL2 release; TRAC/TRBC; 50 nM VLD; T2: 764 pg/mL
  IL2 release; TRAC/TRBC; 500 nM VLD; T2: 1200 pg/mL
[4]
  Caspase 3/7 integrated intensity; TRAC only; 500 nM RMF; T2: 4950
  Caspase 3/7 integrated intensity; TRAC/TRBC; 500 nM RMF; T2: 6800
[5]
  Caspase 3/7 integrated intensity; TRAC only; 0 nM VLD; T2: 12200
  Caspase 3/7 integrated intensity; TRAC only; 0.005 nM VLD; T2: 21000
  Caspase 3/7 integrated intensity; TRAC only; 0.05 nM VLD; T2: 199000
  Caspase 3/7 integrated intensity; TRAC only; 0.5 nM VLD; T2: 1.01e+06
  Caspase 3/7 integrated intensity; TRAC only; 5 nM VLD; T2: 1.14e+06
  Caspase 3/7 integrated intensity; TRAC only; 50 nM VLD; T2: 1.28e+06
  Caspase 3/7 integrated intensity; TRAC only; 500 nM VLD; T2: 1.31e+06
  Caspase 3/7 integrated intensity; TRAC/TRBC; 0 nM VLD; T2: 12400
  Caspase 3/7 integrated intensity; TRAC/TRBC; 0.005 nM VLD; T2: 21000
  Caspase 3/7 integrated intensity; TRAC/TRBC; 0.05 nM VLD; T2: 311000
  Caspase 3/7 integrated intensity; TRAC/TRBC; 0.5 nM VLD; T2: 964000
  Caspase 3/7 integrated intensity; TRAC/TRBC; 5 nM VLD; T2: 1.26e+06
  Caspase 3/7 integrated intensity; TRAC/TRBC; 50 nM VLD; T2: 1.04e+06
  Caspase 3/7 integrated intensity; TRAC/TRBC; 500 nM VLD; T2: 1.19e+06
[6]
  Mean % Tetramer+ (CD4+): 77.5%
  Mean % Tetramer+ (CD8+): 73.6%
  Mean Tetramer MFI (CD4+): 101000 MFI
  Mean Tetramer MFI (CD8+): 102000 MFI
[7]
  Mean % Tetramer+ (CD4+): 85.3%
  Mean % Tetramer+ (CD8+): 81.9%
  Mean Tetramer MFI (CD4+): 251000 MFI
  Mean Tetramer MFI (CD8+): 190000 MFI
[8]
  % CD4+ TNFa+ IFNg+; TRAC/TRBC; 50 nM RMF; T2: 2.2%
  % CD8+ TNFa+ IFNg+; TRAC/TRBC; 50 nM RMF; T2: 0.4%
[9]
  % CD4+ TNFa+ IFNg+; TRAC/TRBC; 0 nM VLD; T2: 2.1%
  % CD4+ TNFa+ IFNg+; TRAC/TRBC; 0.005 nM VLD; T2: 1.6%
  % CD4+ TNFa+ IFNg+; TRAC/TRBC; 0.05 nM VLD; T2: 0.9%
  % CD4+ TNFa+ IFNg+; TRAC/TRBC; 0.5 nM VLD; T2: 0.6%
  % CD4+ TNFa+ IFNg+; TRAC/TRBC; 5 nM VLD; T2: 0.2%
  % CD4+ TNFa+ IFNg+; TRAC/TRBC; 50 nM VLD; T2: 0.1%
  % CD8+ TNFa+ IFNg+; TRAC/TRBC; 0 nM VLD; T2: 0.4%
  % CD8+ TNFa+ IFNg+; TRAC/TRBC; 0.005 nM VLD; T2: 7.6%
  % CD8+ TNFa+ IFNg+; TRAC/TRBC; 0.05 nM VLD; T2: 28.7%
  % CD8+ TNFa+ IFNg+; TRAC/TRBC; 0.5 nM VLD; T2: 46.5%
  % CD8+ TNFa+ IFNg+; TRAC/TRBC; 5 nM VLD; T2: 63.1%
  % CD8+ TNFa+ IFNg+; TRAC/TRBC; 50 nM VLD; T2: 71.4%
[10]
  IFN-gamma release; TRAC/TRBC; 50 nM VLD; T2: 23600
  IFN-gamma release; TRAC/TRBC; 500 nM VLD; T2: 31600
  IFN-gamma release; only TRAC; 50 nM VLD; T2: 23700
  IFN-gamma release; only TRAC; 500 nM VLD; T2: 27500

B2: TCR-F (WT1-specific T-cell receptor) (TCR, V domains shown)
V domain 1: AQKITQTQPGMFVQEKEAVTLDCTYDTSDPSYGLFWYKQPSSGEMIFLIYQGSYDQQNATEGRYSLNFQKARKSANLVISASQLGDSAMYFCAISGNTPLVFGKGTRLSVIA
V domain 2: AAGVIQSPRHLIKEKRETATLKCYPIPRHDTVYWYQQGPGQDPQFLISFYEKMQSDKGSIPDRFSAQQFSDYHSELNMSSLELGDSALYFCASSLRGGLEKLFFGSGTQLSVLE
notes: also called AV14-TCR-F
[6]
  Mean % Tetramer+ (CD4+): 78.9%
  Mean % Tetramer+ (CD8+): 61%
  Mean Tetramer MFI (CD4+): 67300 MFI
  Mean Tetramer MFI (CD8+): 50100 MFI
[7]
  Mean % Tetramer+ (CD4+): 81.8%
  Mean % Tetramer+ (CD8+): 76.6%
  Mean Tetramer MFI (CD4+): 231000 MFI
  Mean Tetramer MFI (CD8+): 172000 MFI
